# B1: NOD201M (NOD201 with murine Fc domain; no linker) (Fc fusion)
# chain: GCPRPRGDNPPLTCSQDSDCLAGCVCGPNGFCGEPRVPITQNPCPPLKECPPCAAPDLLGGPSVFIFPPKIKDVLMISLSPMVTCVVVDVSEDDPDVQISWFVNNVEVHTAQTQTHREDYNSTLRVVSALPIQHQDWMSGKEFKCKVNNRALPSPIEKTISKPRGPVRAPQVYVLPPPAEEMTKKEFSLTCMITGFLPAEIAVDWTSNGRTEQNYKNTATVLDSDGSYFMYSKLRVQKSTWERGSLFACSVVHEGLHNHLTTKTISRSLG
# What was measured:
# [1] = target: monkey integrins on CV-1 and RF/6A cells; experiment: flow cytometry on CV-1 (monkey) cells, detection with an antibody against the Fc domain [panel CV-1 (monkey]
# [2] = target: rabbit integrins on SIRC cells (rabbit corneal cells); experiment: flow cytometry on SIRC (rabbit cornea) cells, detection with an antibody against the Fc domain; cell of the drawn KD table, column SIRC [KD table]
# [3] = target: rat integrins on Rat2 cells (rat fibroblasts); experiment: flow cytometry on Rat2 (rat fibroblast) cells, detection with an antibody against the Fc domain; cell of the drawn KD table, column Rat2 [KD table]
# [4] = target: monkey integrins on CV-1 and RF/6A cells; experiment: flow cytometry on CV-1 (monkey) cells, bound protein detected with an antibody against the Fc domain; cell of the drawn KD table, column CV-1 [KD table]
# [5] = target: monkey integrins on CV-1 and RF/6A cells; experiment: flow cytometry on RF/6A (monkey) cells, bound protein detected with an antibody against the Fc domain; cell of the drawn KD table, column RF/6A [KD table]
# [6] = target: human integrins on U87MG cells (human tumor cells); experiment: flow cytometry on U87MG (human) cells, bound protein detected with an antibody against the Fc domain; cell of the drawn KD table, column U87MG [KD table]
Molecule,EC50 (read off the curve) [1] [nM],Kd [2] [nM],Kd [3] [nM],Kd [4] [nM],Kd [5] [nM],Kd [6] [nM]
NOD201 (2.5F peptide fused to human IgG1 Fc; no linker) (Fc fusion),2,0.288,1.01,1.5,0.5,–
B1,–,–,–,–,–,0.7
